Laboratory results as given in US20200079855A1 (Pfizer, published 2020).
Values joined by “and” are separate entries in the source; they are usually repeats but may differ in a detail not shown here. Equal values may be shown once.

Target: recombinant human αvβ8 integrin (human) (UniProt P06756)
Assay: SPR (Biacore), Fab affinity of Table 3

Chain of recombinant human αvβ8 integrin (human) (P06756 31-992 limits assumed, form in doubt, chain 1 of 2): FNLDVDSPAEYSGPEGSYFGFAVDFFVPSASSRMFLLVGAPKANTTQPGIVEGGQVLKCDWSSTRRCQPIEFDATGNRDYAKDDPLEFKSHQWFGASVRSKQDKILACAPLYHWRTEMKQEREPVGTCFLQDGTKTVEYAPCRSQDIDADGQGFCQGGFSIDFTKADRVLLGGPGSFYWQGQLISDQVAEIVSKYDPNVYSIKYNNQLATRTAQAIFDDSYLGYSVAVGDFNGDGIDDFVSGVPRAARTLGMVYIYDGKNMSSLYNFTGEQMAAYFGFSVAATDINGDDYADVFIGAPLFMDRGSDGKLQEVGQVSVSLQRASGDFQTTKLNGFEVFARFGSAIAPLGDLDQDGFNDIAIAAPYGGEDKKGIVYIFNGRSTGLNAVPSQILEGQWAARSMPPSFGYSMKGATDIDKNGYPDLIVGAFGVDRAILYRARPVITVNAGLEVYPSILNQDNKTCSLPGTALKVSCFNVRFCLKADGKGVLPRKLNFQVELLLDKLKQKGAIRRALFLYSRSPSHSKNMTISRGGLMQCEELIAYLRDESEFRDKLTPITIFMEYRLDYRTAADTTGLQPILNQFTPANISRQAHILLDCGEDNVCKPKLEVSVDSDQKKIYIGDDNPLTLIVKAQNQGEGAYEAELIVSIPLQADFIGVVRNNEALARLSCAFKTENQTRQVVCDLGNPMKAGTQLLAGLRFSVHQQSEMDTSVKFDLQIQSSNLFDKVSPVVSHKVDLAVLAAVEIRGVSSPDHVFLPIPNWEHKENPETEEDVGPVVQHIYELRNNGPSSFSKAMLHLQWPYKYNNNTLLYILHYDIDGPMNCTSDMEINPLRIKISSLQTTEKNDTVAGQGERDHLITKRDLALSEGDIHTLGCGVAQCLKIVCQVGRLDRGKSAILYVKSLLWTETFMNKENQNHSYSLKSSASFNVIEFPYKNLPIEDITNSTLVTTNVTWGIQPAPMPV
Chain of recombinant human αvβ8 integrin (human) (chain, as listed by the source limits assumed, form in doubt, chain 2 of 2): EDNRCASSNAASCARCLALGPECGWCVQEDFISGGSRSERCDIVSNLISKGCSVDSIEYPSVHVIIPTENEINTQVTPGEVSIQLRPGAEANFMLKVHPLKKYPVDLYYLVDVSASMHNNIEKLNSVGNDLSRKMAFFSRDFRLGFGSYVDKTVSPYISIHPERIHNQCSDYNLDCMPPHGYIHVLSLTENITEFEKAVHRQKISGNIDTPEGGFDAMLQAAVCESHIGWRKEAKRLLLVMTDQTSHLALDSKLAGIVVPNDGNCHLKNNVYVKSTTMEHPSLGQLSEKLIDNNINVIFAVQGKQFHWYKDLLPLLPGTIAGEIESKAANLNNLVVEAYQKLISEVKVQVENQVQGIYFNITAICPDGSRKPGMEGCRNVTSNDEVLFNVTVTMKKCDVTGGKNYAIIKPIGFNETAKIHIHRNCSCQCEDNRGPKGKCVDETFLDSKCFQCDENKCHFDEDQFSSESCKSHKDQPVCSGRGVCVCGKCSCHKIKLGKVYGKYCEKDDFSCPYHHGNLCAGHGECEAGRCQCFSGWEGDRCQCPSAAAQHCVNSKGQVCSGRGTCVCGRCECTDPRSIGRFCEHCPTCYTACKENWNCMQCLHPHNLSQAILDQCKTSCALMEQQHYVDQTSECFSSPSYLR

| Binder | Kd | fold lower KD than the mouse hybridoma antibody ADWA-11 [fold] |
| --- | --- | --- |
| ADWA11 VH01/VK01 Fab (Fab, V domains shown) VH: EVQLVESGGGLVQPGGSLRLSCAASGFNIKDYYMNWVRQAPGKGLEWVAWIDPDNGNTIYDPKFQGRFTISRDNAKNSLYLQMNSLRAEDTAVYYCARRLLMDYWGQGTLVTVSS VL: DIQMTQSPSSLSASVGDRVTITCRSTKSLLHFNGNTYLFWYQQKPGKAPKRLIYYMSNLASGVPSRFSGSGSGTDFTLTISSLQPEDFATYYCMQSLEYPFTFGQGTKVEIK | 6.86 nM |  |
| ADWA11 VH02/VK01 Fab (Fab, V domains shown) VH: EVQLVESGGGLVQPGGSLRLSCAASGFNIKDYYMNWVRQAPGKGLEWVAWIDPDNGNTIYDPKFQGRFTISADNAKNSLYLQMNSLRAEDTAVYYCARRLLMDYWGQGTLVTVSS VL: DIQMTQSPSSLSASVGDRVTITCRSTKSLLHFNGNTYLFWYQQKPGKAPKRLIYYMSNLASGVPSRFSGSGSGTDFTLTISSLQPEDFATYYCMQSLEYPFTFGQGTKVEIK | 1.89 nM |  |
| ADWA11 VH03/VK02 Fab (Fab, V domains shown) VH: EVQLVESGGGLVQPGGSLRLSCAASGFNIKDYYMNWVRQAPGKGLEWVGWIDPDNGNTIYDPKFQGRFTISADNAKNSAYLQMNSLRAEDTAVYYCARRLLMDYWGQGTLVTVSS VL: DIQMTQSPSSLSASVGDRVTITCRSTKSLLHFNGNTYLFWFQQKPGKAPKRLIYYMSNLASGVPSRFSGSGSGTDFTLTISSLQPEDFATYYCMQSLEYPFTFGQGTKVEIK | 0.373 nM and 0.37 nM |  |
| ADWA11 VH03/VK01 Fab (Fab, V domains shown) VH: EVQLVESGGGLVQPGGSLRLSCAASGFNIKDYYMNWVRQAPGKGLEWVGWIDPDNGNTIYDPKFQGRFTISADNAKNSAYLQMNSLRAEDTAVYYCARRLLMDYWGQGTLVTVSS VL: DIQMTQSPSSLSASVGDRVTITCRSTKSLLHFNGNTYLFWYQQKPGKAPKRLIYYMSNLASGVPSRFSGSGSGTDFTLTISSLQPEDFATYYCMQSLEYPFTFGQGTKVEIK | 0.0735 nM and < 0.1 nM | > 5 |

Target: recombinant human αvβ8 integrin (human) (UniProt P06756)
Assay: ELISA (DELFIA counts) on human αvβ8, Fab titration

| Binder | EC50 (read off the curve) [nM] |
| --- | --- |
| ADWA11 VH05/VK01 Fab with N57Q in VH (Fab, V domains shown) VH: EVQLVESGGGLVQPGGSLRLSCAASGFNIKDYYMNWVRQAPGKGLEWVGWIDPDNGQTIYDPKFQGRFTISADTSKNSAYLQMNSLRAEDTAVYYCARRLLMDYWGQGTLVTVSS VL: DIQMTQSPSSLSASVGDRVTITCRSTKSLLHFNGNTYLFWYQQKPGKAPKRLIYYMSNLASGVPSRFSGSGSGTDFTLTISSLQPEDFATYYCMQSLEYPFTFGQGTKVEIK | 1 |
| ADWA11 VH05/VK01 Fab with P62A in VH (Fab, V domains shown) VH: EVQLVESGGGLVQPGGSLRLSCAASGFNIKDYYMNWVRQAPGKGLEWVGWIDPDNGNTIYDAKFQGRFTISADTSKNSAYLQMNSLRAEDTAVYYCARRLLMDYWGQGTLVTVSS VL: DIQMTQSPSSLSASVGDRVTITCRSTKSLLHFNGNTYLFWYQQKPGKAPKRLIYYMSNLASGVPSRFSGSGSGTDFTLTISSLQPEDFATYYCMQSLEYPFTFGQGTKVEIK | 1 |
| ADWA11 VH05/VK01 Fab with K63A in VH (Fab, V domains shown) VH: EVQLVESGGGLVQPGGSLRLSCAASGFNIKDYYMNWVRQAPGKGLEWVGWIDPDNGNTIYDPAFQGRFTISADTSKNSAYLQMNSLRAEDTAVYYCARRLLMDYWGQGTLVTVSS VL: DIQMTQSPSSLSASVGDRVTITCRSTKSLLHFNGNTYLFWYQQKPGKAPKRLIYYMSNLASGVPSRFSGSGSGTDFTLTISSLQPEDFATYYCMQSLEYPFTFGQGTKVEIK | 1 |
| ADWA11 VH05/VK01 Fab with N55Q in VH (Fab, V domains shown) VH: EVQLVESGGGLVQPGGSLRLSCAASGFNIKDYYMNWVRQAPGKGLEWVGWIDPDQGNTIYDPKFQGRFTISADTSKNSAYLQMNSLRAEDTAVYYCARRLLMDYWGQGTLVTVSS VL: DIQMTQSPSSLSASVGDRVTITCRSTKSLLHFNGNTYLFWYQQKPGKAPKRLIYYMSNLASGVPSRFSGSGSGTDFTLTISSLQPEDFATYYCMQSLEYPFTFGQGTKVEIK | 1 |
| ADWA11 VH05/VK01 Fab with D61E in VH (Fab, V domains shown) VH: EVQLVESGGGLVQPGGSLRLSCAASGFNIKDYYMNWVRQAPGKGLEWVGWIDPDNGNTIYEPKFQGRFTISADTSKNSAYLQMNSLRAEDTAVYYCARRLLMDYWGQGTLVTVSS VL: DIQMTQSPSSLSASVGDRVTITCRSTKSLLHFNGNTYLFWYQQKPGKAPKRLIYYMSNLASGVPSRFSGSGSGTDFTLTISSLQPEDFATYYCMQSLEYPFTFGQGTKVEIK | 1 |
| ADWA11 VH05/VK01 Fab with K30A in VH (Fab, V domains shown) VH: EVQLVESGGGLVQPGGSLRLSCAASGFNIADYYMNWVRQAPGKGLEWVGWIDPDNGNTIYDPKFQGRFTISADTSKNSAYLQMNSLRAEDTAVYYCARRLLMDYWGQGTLVTVSS VL: DIQMTQSPSSLSASVGDRVTITCRSTKSLLHFNGNTYLFWYQQKPGKAPKRLIYYMSNLASGVPSRFSGSGSGTDFTLTISSLQPEDFATYYCMQSLEYPFTFGQGTKVEIK | 1 |

Target: human αvβ8 integrin on U251 cells (human, UniProt P06756 31-1048)
Assay: flow cytometry, Fab binding to fixed U251 cells (MFI APC-A); EC50 unit inferred, axis Log10 [Ab] (nM)

| Binder | EC50 [nM] |
| --- | --- |
| ADWA11 2.2 Fab (Fab, V domains shown) VH: EVQLVESGGGLVQPGGSLRLSCAASGFNIKDYYMNWVRQAPGKGLEWVGWIDPDQGNTIYEPKFQGRFTISADTSKNSAYLQMNSLRAEDTAVYYCARRLLMDYWGQGTLVTVSS VL: DIQMTQSPSSLSASVGDRVTITCRSTKSLSHFNGNTYLFWYQQKPGKAPKRLIYYMSNLASGVPSRFSGSGSGTDFTLTISSLQPEDFATYYCMQSYEYPFTFGGGTKVEIK | 0.225 |
| ADWA11 2.4 (F64V) Fab (Fab, V domains shown) VH: EVQLVESGGGLVQPGGSLRLSCAASGFNIKDYYMNWVRQAPGKGLEWVGWIDPDQGNTIYEPKVQGRFTISADTSKNSAYLQMNSLRAEDTAVYYCARRLLMDYWGQGTLVTVSS VL: DIQMTQSPSSLSASVGDRVTITCRSTKSLSHFNGNTYLFWYQQKPGKAPKRLIYYMSSLASGVPSRFSGSGSGTDFTLTISSLQPEDFATYYCQQSLEYPFTFGGGTKVEIK | 0.211 |
| ADWA11 2.3 Fab (Fab, V domains shown) VH: EVQLVESGGGLVQPGGSLRLSCAASGFNIKDYYMNWVRQAPGKGLEWVGWIDPDQGNTIYEPKFQGRFTISADTSKNSAYLQMNSLRAEDTAVYYCARRLLMDYWGQGTLVTVSS VL: DIQMTQSPSSLSASVGDRVTITCRSTKSLSHFNGNTYLFWYQQKPGKAPKRLIYYASNLASGVPSRFSGSGSGTDFTLTISSLQPEDFATYYCQQSLEYPFTFGGGTKVEIK | 0.452 |
| ADWA11 2.3 (F64V) Fab (Fab, V domains shown) VH: EVQLVESGGGLVQPGGSLRLSCAASGFNIKDYYMNWVRQAPGKGLEWVGWIDPDQGNTIYEPKVQGRFTISADTSKNSAYLQMNSLRAEDTAVYYCARRLLMDYWGQGTLVTVSS VL: DIQMTQSPSSLSASVGDRVTITCRSTKSLSHFNGNTYLFWYQQKPGKAPKRLIYYASNLASGVPSRFSGSGSGTDFTLTISSLQPEDFATYYCQQSLEYPFTFGGGTKVEIK | 0.28 |
| ADWA11 2.1 Fab (Fab, V domains shown) VH: EVQLVESGGGLVQPGGSLRLSCAASGFNIKDYYMNWVRQAPGKGLEWVGWIDPDQGNTIYEPKFQGRFTISADTSKNSAYLQMNSLRAEDTAVYYCARRLLMDYWGQGTLVTVSS VL: DIQMTQSPSSLSASVGDRVTITCRSTKSLSHFNGNTYLFWYQQKPGKAPKRLIYYMSNLASGVPSRFSGSGSGTDFTLTISSLQPEDFATYYCQQSLEYPFTFGGGTKVEIK | 0.218 |
| ADWA11 2.1 (F64V) Fab (Fab, V domains shown) VH: EVQLVESGGGLVQPGGSLRLSCAASGFNIKDYYMNWVRQAPGKGLEWVGWIDPDQGNTIYEPKVQGRFTISADTSKNSAYLQMNSLRAEDTAVYYCARRLLMDYWGQGTLVTVSS VL: DIQMTQSPSSLSASVGDRVTITCRSTKSLSHFNGNTYLFWYQQKPGKAPKRLIYYMSNLASGVPSRFSGSGSGTDFTLTISSLQPEDFATYYCQQSLEYPFTFGGGTKVEIK | 0.225 |
